Results taken from IntAct's records for PubMed 24351927.

What was measured:
1433g_rat Ywhag [1] = biological target: 1433g_rat Ywhag (UniProt P61983)
1433t_human YWHAQ = 1433t_human YWHAQ (UniProt P27348)
1433z_human YWHAZ = 1433z_human YWHAZ (UniProt P63104)
1433g_rat Ywhag [2] = biological target: 1433g_rat Ywhag (UniProt P61983); remark: listed apart in the source

Sequence of UniProt P61983 (P61983 whole entry): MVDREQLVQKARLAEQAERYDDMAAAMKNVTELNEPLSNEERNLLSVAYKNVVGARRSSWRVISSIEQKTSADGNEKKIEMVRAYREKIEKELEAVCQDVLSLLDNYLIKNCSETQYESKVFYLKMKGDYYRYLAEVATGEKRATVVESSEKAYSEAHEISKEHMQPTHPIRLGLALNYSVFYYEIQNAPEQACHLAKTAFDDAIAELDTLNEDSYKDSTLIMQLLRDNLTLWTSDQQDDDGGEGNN
Sequence of UniProt P27348 (P27348 whole entry): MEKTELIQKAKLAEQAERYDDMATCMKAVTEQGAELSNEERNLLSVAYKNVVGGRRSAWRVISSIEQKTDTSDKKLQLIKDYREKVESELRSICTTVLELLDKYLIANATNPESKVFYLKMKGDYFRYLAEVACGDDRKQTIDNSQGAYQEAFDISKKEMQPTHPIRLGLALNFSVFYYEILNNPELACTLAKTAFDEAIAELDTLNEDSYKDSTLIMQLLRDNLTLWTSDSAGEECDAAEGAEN
Sequence of UniProt P63104 (P63104 whole entry): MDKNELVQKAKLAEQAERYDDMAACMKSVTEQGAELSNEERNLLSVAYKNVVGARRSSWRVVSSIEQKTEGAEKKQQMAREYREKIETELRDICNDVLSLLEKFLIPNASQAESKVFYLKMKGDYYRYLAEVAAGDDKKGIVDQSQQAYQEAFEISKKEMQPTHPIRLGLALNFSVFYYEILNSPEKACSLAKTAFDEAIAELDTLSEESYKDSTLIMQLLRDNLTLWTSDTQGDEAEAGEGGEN

Leucine-rich repeat serine/threonine-protein kinase 2 (Homo sapiens), Q5S007 S1444A
effect of a mutation on the interaction (1433g_rat Ywhag [1]): disrupting interaction | effect of a mutation on the interaction (1433t_human YWHAQ): disrupting interaction | effect of a mutation on the interaction (1433z_human YWHAZ): disrupting interaction

Leucine-rich repeat serine/threonine-protein kinase 2 (Homo sapiens), Q5S007 S1443A;S1444A
effect of a mutation on the interaction (1433g_rat Ywhag [1]): disrupting interaction

Leucine-rich repeat serine/threonine-protein kinase 2 (Homo sapiens), Q5S007 R1441G
effect of a mutation on the interaction (1433g_rat Ywhag [2]): disrupting interaction | effect of a mutation on the interaction (1433t_human YWHAQ): disrupting interaction | effect of a mutation on the interaction (1433z_human YWHAZ): disrupting interaction
